Assay results reported in publication PMC12207370, “Macrocyclic Peptide Probes for Immunomodulatory Protein CD59: Potent Modulators of Bacterial Toxin Activity and Antibody‐Dependent Cytotoxicity” (Angewandte Chemie (International Ed. in English), 2025).

Target: T1, biotinylated CD59 (Homo sapiens, UniProt P13987)
T1 construct: Recombinant soluble human CD59 with an additional C-terminal cysteine residue
T1 sequence (P13987 26-102 limits assumed): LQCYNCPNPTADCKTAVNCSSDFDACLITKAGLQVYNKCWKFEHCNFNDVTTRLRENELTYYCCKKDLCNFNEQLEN
Assay: mRNA-display cyclic peptide screen against CD59-biotin, NGS abundance after 6th selection round
Conditions: for Percentage Seq I: counts normalised by total counts of sample Seq I; for Percentage Seq I / Percentage Seq II: percentage of the pool; for Percentage Seq I / Percentage Seq II / Percentage Average / Percentage of the pool, averaged across the two sequencing samples / Percentage of the pool, Seq I / Percentage of the pool, Seq II: sheet R6; for Percentage Seq II: counts normalised by total counts of sample Seq II; for Percentage Average: percentage of the pool averaged across the two sequencing samples; for Counts Seq I / Counts Seq II: raw NGS counts of peptide sequence; for Counts Seq I: sequencing sample Seq I; for Counts Seq I / Counts Seq II / Counts (raw counts for peptide sequence), Seq I / Counts (raw counts for peptide sequence), Seq II: sheet R6 (6th selection round); for Counts Seq II: sequencing sample Seq II; for Counts (raw counts for peptide sequence), Seq I: NGS sample Seq I; for Counts (raw counts for peptide sequence), Seq II: NGS sample Seq II; for Percentage of the pool, averaged across the two sequencing samples: average of Seq I and Seq II; for Percentage of the pool, Seq I: counts normalised by total counts of NGS sample Seq I; for Percentage of the pool, Seq II: counts normalised by total counts of NGS sample Seq II
Method in brief: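 Peptide–mRNA fusions were made by in vitro translation with a customised PURE express kit. The kit lacked release factor 1 and methionine and was supplemented with […] initiator tRNA carrying N-chloroacetyl-d-tyrosine. Thioether macrocycles were formed, then enriched and amplified over iterative rounds on CD59-biotin immobilised on streptavidin beads. NGS read counts per sequence were recorded after the 6th selection round.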

Sequence	Percentage Seq I [%]	Percentage Seq II [%]	Percentage Average [%]	Counts Seq I	Counts Seq II	Counts (raw counts for peptide sequence), Seq I	Counts (raw counts for peptide sequence), Seq II	Percentage of the pool, averaged across the two sequencing samples [%]	Percentage of the pool, Seq I [%]	Percentage of the pool, Seq II [%]
HVFGNRSFTRG	5.324	5.834	5.579	23292	2514	–	–	–	–	–
HVFGNRSFTSG	0.017	0.021	0.019	73	9	–	–	–	–	–
HVFGNRSLTRG	–	–	–	–	–	93	5	0.016	0.021	0.012
HVFGNRSSTRG	–	–	–	–	–	69	6	0.015	0.016	0.014
HVFGNRSYTRG	–	–	–	–	–	46	7	0.013	0.011	0.016
HVFGSRSFTRG	0.074	0.084	0.079	323	36	–	–	–	–	–
HVIGNRSFTRG	0.020	0.016	0.018	87	7	–	–	–	–	–
HVLGNRSFTRG	0.071	0.084	0.077	312	36	–	–	–	–	–
HVRGDAWTVLG	0.243	0.216	0.230	1065	93	–	–	–	–	–
HVSGNRSFTRG	0.024	0.035	0.029	104	15	–	–	–	–	–
HVYGNRSFTRG	–	–	–	–	–	97	5	0.017	0.022	0.012
IAFGSRFHSYQ	0.584	0.647	0.616	2554	279	–	–	–	–	–
IALGDRTFSFG	0.366	0.334	0.350	1603	144	–	–	–	–	–
IARGDRNHQFF	–	–	–	–	–	42	6	0.012	0.010	0.014
IARGDRNHQFY	0.296	0.251	0.273	1296	108	–	–	–	–	–
IARGDRTFSFG	0.013	0.035	0.024	57	15	–	–	–	–	–
IARGDWNHQFF	–	–	–	–	–	56	3	0.010	0.013	0.007
IARGDWNHQFY	0.514	0.450	0.482	2249	194	–	–	–	–	–
IARGGRHFSSG	–	–	–	–	–	46	4	0.010	0.011	0.009
IASGSLHFVFY	0.027	0.032	0.030	119	14	–	–	–	–	–
